# According to patent US20240287479A1, “GLYCOSYLTRANSFERASE MUTANT, AND METHOD FOR CATALYTIC SYNTHESIS OF REBAUDIOSIDE M USING GLYCOSYLTRANSFERASE MUTANT” (XINGHUA GL STEVIA CO., LTD, priority 2021, published 2024):
# Where a chain is given by its changes, count along the chain named. Numbers in names are those of the source.
# B1: S195Q: UGT76G1 (SEQ ID NO: 1) mutant, position 195 serine to glutamine (protein)
# chain: MENKTETTVRRRRRIILFPVPFQGHINPILQLANVLYSKGFSITIFHTNFNKPKTSNYPHFTFRFILDNDPQDERISNLPTHGPLAGMRIPIINEHGADELRRELELLMLASEEDEEVSCLITDALWYFAQSVADSLNLRRLVLMTSSLFNFHAHVSLPQFDELGYLDPDDKTRLEEQASGFPMLKVKDIKSAYQNWQILKEILGKMIKQTKASSGVIWNSFKELEESELETVIREIPAPSFLIPLPKHLTASSSSLLDHDRTVFQWLDQQPPSSVLYVSFGSTSEVDEKDFLEIARGLVDSKQSFLWVVRPGFVKGSTWVEPLPDGFLGERGRIVKWVPQQEVLAHGAIGAFWTHSGWNSTLESVCEGVPMIFSDFGLDQPLNARYMSDVLKVGVYLENGWERGEIANAIRRVMVDEEGEYIRQNARVLKQKADVSLMKGGSSYESLESLVSYISSL
# modifications: The sequence is synthetized.
# B2: T284S-StSUS1: recombinase (crude enzyme) from E. coli BL21 (DE3) co-expressing mutant T284S and sucrose synthase StSUS1 (protein)
# chain: B1 chain with Q195S, T284S
# B3: UGT76G1: wild-type Stevia rebaudiana-derived glycosyltransferase, amino acid sequence SEQ ID NO: 1 (protein)
# chain: B1 chain with Q195S
# modifications: The sequence is synthetized.
# B4: S195Q-StSUS1: recombinase (crude enzyme) from E. coli BL21 (DE3) co-expressing mutant S195Q and sucrose synthase StSUS1 (protein)
# chain: B1 chain
# B5: L200Y-StSUS1: recombinase (crude enzyme) from E. coli BL21 (DE3) co-expressing mutant L200Y and sucrose synthase StSUS1 (protein)
# chain: B1 chain with Q195S, L200Y
# B6: G378P-StSUS1: recombinase (crude enzyme) from E. coli BL21 (DE3) co-expressing mutant G378P and sucrose synthase StSUS1 (protein)
# chain: B1 chain with Q195S, G378P
# B7: L200Y: UGT76G1 (SEQ ID NO: 1) mutant, position 200 leucine to tyrosine (protein)
# chain: B1 chain with Q195S, L200Y
# modifications: The sequence is synthetized.
# B8: S147N-StSUS1: recombinase (crude enzyme) from E. coli BL21 (DE3) co-expressing mutant S147N and sucrose synthase StSUS1 (protein)
# chain: B1 chain with S147N, Q195S
# B9: S147D-StSUS1: recombinase (crude enzyme) from E. coli BL21 (DE3) co-expressing mutant S147D and sucrose synthase StSUS1 (protein)
# chain: B1 chain with S147D, Q195S
# B10: S285W-StSUS1: recombinase (crude enzyme) from E. coli BL21 (DE3) co-expressing mutant S285W and sucrose synthase StSUS1 (protein)
# chain: B1 chain with Q195S, S285W
# What was measured:
# Format in all cases: biochemical
# [1] = Crude enzyme activity of glycosyltransferase mutants and WT (HPLC); conditions: 1.2 mM rebaudioside E, 2 mM UDPG, crude enzyme 1 mg, 37° C., 30 min
# Protocol: (§1) Activities of glycosyltransferase mutants and a WT glycosyltransferase were determined. A 3 mL catalytic reaction system was prepared from the following components: 1.2 mM rebaudioside E, 2 mM UDPG, 3 mM MgCl2, crude enzyme: 1 mg, and 100 mM potassium phosphate buffer with a pH of 7.2: the balance. A catalytic reaction was conducted on a shaker at 37° C. and 200 rpm, where a sample was collected at 0 min and 30 min. Sample treatment: 500 μL of a sample solution was pipetted and added to an EP tube; the EP tube was placed in boiling water at 95° C. for 15 min to stop a reaction, and then centrifuged in a centrifuge at 12,000 rpm for 1 min; and a resulting supernatant was collected and added to a new EP tube, filtered through an organic filter membrane (0.45 μm), and stored in a liquid-phase sample bottle for high-performance liquid chromatography (HPLC) analysis. Definition of an enzyme activity (U): an enzyme amount required for producing 1 μmol of a product within 1 min is defined as 1 enzyme activity unit.
# The four mutant strains S195Q-StSUS1, L200Y-StSUS1, T284S-StSUS1, and S285W-StSUS1 screened out in the above conversion experiment were used to produce glycosyltransferase mutants, and the glycosyltransferase mutants and the WT glycosyltransferase UGT76G1 were tested for activities. […] Thus, the optimal mutant strain S195Q-StSUS1 was screened out.
# [2] = Kinetic parameters of purified glycosyltransferases for rebaudioside E; conditions: for Kcat / Km: substrate RebE, purified enzyme
# Protocol: as §1
# (§2) A final concentration of rebaudioside E was set to 10 μM to 2,000 μM or a final concentration of rebaudioside D was set to 50 μM to 2,000 μM. Rebaudioside E or rebaudioside D solutions of different concentrations each were mixed with an appropriate amount of each of the purified WT UGT76G1 and the mutant S195Q, and an enzyme activity was determined according to the enzyme activity assay method described above. A Michaelis Menten equation was used to calculate Kn, Vmax, Keat, and Keat/Km of the purified WT glycosyltransferase and the glycosyltransferase mutant.
# [3] = Kinetic parameters of purified glycosyltransferases for rebaudioside D; conditions: for Kcat / Km: substrate RebD, purified enzyme
# Protocol: as §1, §2
# [4] = Preliminary screening: conversion of RebE by crude recombinases; conditions: 40° C., 12 h; for catalytic activity / conversion rate for RebE (in words): RebE 10 g/L
# Protocol: (§3) Recombinases were prepared with the mutant strains G87D-StSUS1, S147D-StSUS1, S147N-StSUS1, S195Q-StSUS1, L200Y-StSUS1, T284S-StSUS1, S285W-StSUS1, and G378P-StSUS1 and the WT strain UGT76G1-StSUS1, and then used to convert RebE or RebD to preliminarily screen out relatively-preferred mutants.
# The conversion of RebE adopted a 3 mL reaction system including. RebE as a substrate: 10 g/L, sucrose: 30 g/L, crude enzyme: 5 mg/mL, and 100 mM potassium phosphate buffer (pH 7.2): the balance. A RebE conversion reaction was conducted on a shaker at 40° C. and 200 rpm for 12 h, and corresponding conversion rates were shown in FIG. 1.
# [5] = Preliminary screening: conversion of RebD by crude recombinases; conditions: 40° C.; for RebD substrate conversion rate relative to UGT76G1-StSUS1: 20 h
# Protocol: as §3
# The conversion of RebD adopted a 3 mL reaction system including: RebD as a substrate: 1 g/L, sucrose: 3 g/L, crude enzyme: 5 mg/mL, and 100 mM potassium phosphate buffer (pH 7.2): the balance. A RebD conversion reaction was conducted on a shaker at 40° C. and 200 rpm for 6 h and 20 h, and corresponding conversion rates were shown in FIG. 2.
molecule,measurement,setting,value
B1,enzyme activity (in words),[1],highest enzyme activity
same,enzyme activity relative to WT glycosyltransferase UGT76G1,[1],1.3 times
same,Kcat,[2],1.48 ± 0.01 s⁻¹
same,Km,[2],56.3 ± 2.02 µM
same,improvement of catalytic efficiency compared with the WT glycosyltransferase,[2]; substrate rebaudioside E,2.2 times
same,Kcat,[3],0.25 ± 0.004 s⁻¹
same,Km,[3],214 ± 14.5 µM
same,improvement of affinity compared with the WT glycosyltransferase,[3]; substrate rebaudioside D,2.2 times
same,improvement of catalytic efficiency compared with the WT glycosyltransferase,[3]; substrate rebaudioside D,2.8 times
B2,RebE conversion rate relative to UGT76G1-StSUS1,[4],1.1 times
B3,Kcat,[2],2.00 ± 0.03 s⁻¹
same,Km,[2],170 ± 12.6 µM
same,Kcat,[3],0.20 ± 0.005 s⁻¹
same,Km,[3],478 ± 33 µM
B4,RebE conversion rate relative to UGT76G1-StSUS1,[4],1.1 times
same,RebD substrate conversion rate relative to UGT76G1-StSUS1,[5],1.3 times
B5,RebE conversion rate relative to UGT76G1-StSUS1,[4],1.1 times
same,catalytic effect on RebD (in words),[5]; 6 h,optimal catalytic effect
same,RebD substrate conversion rate relative to UGT76G1-StSUS1,[5],1.3 times
B6,catalytic activity / conversion rate for RebE (in words),[4],basically no catalytic activity
B7,enzyme activity (in words),[1],low enzyme activity
B8,catalytic activity / conversion rate for RebE (in words),[4],basically no catalytic activity
B9,catalytic activity / conversion rate for RebE (in words),[4],low conversion rate
B10,RebE conversion rate relative to UGT76G1-StSUS1,[4],1.1 times
